Measurements reported in US20250171787, “APTAMERS, PHARMACEUTICAL COMPOSITIONS THEREOF, AND METHODS FOR PREVENTING OR TREATING BCMA-ASSOCIATED DISEASES OR CONDITIONS” (Aptapeutics Limited, published 2025).

B1: modified 10-3 (XNA)
DNA: CGTACGGTCGACGCTAGCTGTTGCTGTGCAGGAAGAATGCAGATTC
modifications: 2'-OMe on all cytosines; 3' inverted dT (terminal t in listing is the inverted dT)
B2: 10-12 (ssDNA)
DNA: TTGCTGTGCAGGAAGAATGCAGATTCCCAACATGGATCCGAGCTCCACGTG
B3: 10-4 (ssDNA)
DNA: CGTACGGTCGACGCTAGCTGTTGCTGTGCAGGAAGAATGCAGATTCCCAAC
B4: 10-5 (ssDNA)
DNA: CGTACGGTCGACGCTAGCTGTTGCTGTGCAGGAAGAATGCAGATTCCCAACATGGA
B5: 10-6 (ssDNA)
DNA: CGTACGGTCGACGCTAGCTGTTGCTGTGCAGGAAGAATGCAGATTCCCAACATGGATCCGA
B6: 10-7 (ssDNA)
DNA: CGTACGGTCGACGCTAGCTGTTGCTGTGCAGGAAGAATGCAGATTCCCAACATGGATCCGAGCTCC
B7: 10-10 (ssDNA)
DNA: ACGCTAGCTGTTGCTGTGCAGGAAGAATGCAGATTCCCAACATGGATCCGAGCTCCACGTG
B8: 10-9 (ssDNA)
DNA: GGTCGACGCTAGCTGTTGCTGTGCAGGAAGAATGCAGATTCCCAACATGGATCCGAGCTCCACGTG
B9: 10-11 (ssDNA)
DNA: AGCTGTTGCTGTGCAGGAAGAATGCAGATTCCCAACATGGATCCGAGCTCCACGTG
B10: Sample 7 (ssDNA)
DNA: CGTACGGTCGACGCTAGCCCATGGGAATGCAGACCGCAGGCTGGCTGTAGGAGGGATCCGAGCTCCACGTG
B11: Sample 1 (ssDNA)
DNA: CGTACGGTCGACGCTAGCAAGTATAGACGTGATGCAGGGAATGCAGACCCAGGGGATCCGAGCTCCACGTG
B12: Sample 10 (ssDNA)
DNA: CGTACGGTCGACGCTAGCTGTTGCTGTGCAGGAAGAATGCAGATTCCCAACATGGATCCGAGCTCCACGTG

What follows are binders tested against T1, BCMA (TNFRSF17) (Homo sapiens, UniProt Q02223 Q02223:1-54) (assay: ELONA). Settings: tags: His-tag.
T1 sequence (Q02223 1-54, one chain of several): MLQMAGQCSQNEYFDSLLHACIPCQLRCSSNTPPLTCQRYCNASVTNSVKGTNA

Q: Which Kd does the source give for B1 here?
A: Its Kd is ~64.2 nM.

These binders were tested against T1, BCMA (TNFRSF17) (assay: ELONA; best of the truncations). Settings: tags: His-tag; label: 5'-biotin.
Procedure: (§1) ELONA was used to evaluate the binding affinity of the aptamers. 500 ng of His-tagged recombinant BCMA was used to coat each well of a 96-well microtiter plate via overnight incubation at 4° C. 1 hour of BSA blocking at room temperature was used to cover non-binding sites and was followed by 4 washes with DNA binding buffer for 5 minutes. Varying concentrations of each aptamer was added into each well for 45-minute incubation with gentle shaking. The wells were then washed with wash buffer 4 times, 5 minutes each. 100 μl of streptavidin-HRP (1:10000 in PBST+0.1% BSA) was added into each well for 30-minute incubation. 4 washes with binding buffer were then performed. 50 μl of TMB was added to each well for a 20-minute incubation. 50 μl of 2M H₂SO₄ was used to stop the reaction, followed by measurement of 450 nm absorbance.
(§2) Their binding affinity was evaluated via ELONA. Binding curves were plotted, followed by calculation of the binding affinity.

Q: Which Kd does the source give for CGTACGGTCGACGCTAGCTGTTGCTGTGCAGGAAGAATGCAGATTC (ssDNA) [10-3] here?
A: The Kd was 59 nM.

The binders below were run against T1, BCMA (TNFRSF17) (assay: ELONA; random region only). Settings: tags: His-tag; label: 5'-biotin.
Procedure: as §1, §2

Q: How did the Kd turn out when TGTTGCTGTGCAGGAAGAATGCAGATTCCCAACAT (ssDNA) [10-8] was run?
A: Its Kd is 184 nM.

What follows are binders tested against T1, BCMA (TNFRSF17) (assay: ELONA). Settings: tags: His-tag; label: 5'-biotin.
Procedure: as §1, §2

Q: How did the Kd turn out when B2 was run?
A: The Kd was 542 nM.

Q: With B3 as the binder, how does the Kd read?
A: The Kd was 130 nM.

Q: Which Kd does the source give for B4 here?
A: Its Kd is 579 nM.

Q: How did the Kd turn out when B5 was run?
A: The Kd was 364 nM.

Q: Which Kd does the source give for B6 here?
A: The Kd was 65 nM.

Q: Which Kd does the source give for B7 here?
A: The Kd was 1550 nM.

Q: How did the Kd turn out when CGTACGGTCGACGCTAGCTGTTGCTGTGCAGGAAG (ssDNA) [10-1] was run?
A: Its Kd is 1290 nM.

Q: Which Kd does the source give for B8 here?
A: The Kd was 451 nM.

Q: How did the Kd turn out when B9 was run?
A: Its Kd is 1590 nM.

Q: How did the Kd turn out when CGTACGGTCGACGCTAGCTGTTGCTGTGCAGGAAGAATGCA (ssDNA) [10-2] was run?
A: The Kd was 240 nM.

What follows are binders tested against T1, BCMA (TNFRSF17) (assay: ELONA; Kd determined but value only in FIG. 2). Settings: tags: His-tag; label: 5'-biotin.

Q: Does B10 bind?
A: Result: binds

Q: Does B11 bind?
A: Result: binds

Q: Does B12 bind?
A: Result: binds
